Earlier results on 2 sequences are cited in PMC12521419.

Data set [1] deals with LMBV virion (largemouth bass virus particle; binding protein not identified) (Largemouth bass virus (genus Ranavirus, family Iridoviridae), isolated from diseased largemouth bass, propagated in FHM cells). As to the kind of experiment: not stated for truncated form (ELASA stated for parent LA38). Particulars: PBS, aptamers 500 nM each with LMBV in 100 uL for 1 h (temperature not stated); streptavidin beads 4 C 30 min; washes PBS + 0.1% Tween-20; SDA 37 C 30 min ….

The test system is the same in data set [2]. Put plainly: not stated for truncated form (ELASA stated for parent LA13). Particulars: PBS, aptamers 500 nM each with LMBV in 100 uL for 1 h (temperature not stated); streptavidin beads 4 C 30 min; washes PBS + 0.1% Tween-20; SDA 37 C 30 min ….

Broadly, the Kd is the free concentration of one partner at which half of the binding sites on the other are occupied at equilibrium, for simple one-to-one binding. “GCCGGCCCGGGGGATAGAGTGCTCCCGATCCCTTGGCGAAGGGAC [LA38s]”: the Kd in data set [1] is 3.42 nM.
“TTTTGACGCTTTATCCTTTTCTTATGGCGGGATAGTTTCG [LA13s]”: the equilibrium dissociation constant (Kd) in data set [2] is 2.34 nM.
